Data set [1] deals with VchCAST RNA-guided transposition machinery (E. coli BL21(DE3) host, lacZ target). Put plainly: relative integration efficiency (T-RL orientation) vs wild-type transposon end (log2 (normalized fold change)); transposon end mutated: right end (5 bp flank + 75 bp right end); higher = more efficient transposition. The essentials: (§1)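 Co-transformation of E. coli BL21(DE3) combined a pUC57 mini-transposon donor, holding barcoded pools of 1549 left-end or 1849 right-end variants, with a T7-driven plasmid encoding a CRISPR array, tniQ-cas8-cas7-cas6 and tnsA-tnsB-tnsC. After plating with 0.1 mM IPTG at 37°C for 18 h, input plasmids and genomic integration junctions were PCR-amplified and Illumina-sequenced across two biological output replicates, with four reference barcodes. Relative integration efficiency is the normalised, log-transformed output/input barcode fold change.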

For data set [2] the test system is unchanged. Put plainly: relative integration efficiency (T-LR orientation) vs wild-type transposon end (log2 (normalized fold change)); transposon end mutated: right end (5 bp flank + 75 bp right end); higher = more efficient transposition. The essentials:
as §1

± gives the standard deviation of the averaged measurements.

Take “ACATTTGTTGATACAACCATTAAATGCTAATTCCACCCATAAATTGATAATTATCACACCCAATTTAACTATAACGCTCTGATCATAGTCAGACCAACATTGCTACGACCCGTATTCGCACCGACAC”: the “relative integration efficiency (log2)” value in data set [1] is -0.972 ± 0.32; in data set [2], 2.09 ± 0.22.

As to “ACATTTGTTGATACAACCATTAAATGGTAATTACACCCATAAATTGATAATTATCACACCCAATTTAACTATAACGCTCTGATCATAGTCAGACCAACATTGCTACGACCCGTATTCGCACCGACAC”, the “relative integration efficiency (log2)” value in data set [1] was -1.34 ± 0.19; in data set [2], 1.674 ± 0.011.

Regarding “ACATTTGTTGATACAACCATTAAATGGTAATTCCACCCAAAAATTGATAATTATCACACCCAATTTAACTATAACGCTCTGATCATAGTCAGACCAACATTGCTACGACCCGTATTCGCACCGACAC”, the “relative integration efficiency (log2)” value in data set [1] is -2.14 ± 0.21; in data set [2] it was 0.883 ± 0.18.

Regarding “ACATTTGTTGATACAACCATTAAATGGTAATTCCACCCAAATATTGATAATTATCACACCCAATTTAACTATAACGCTCTGATCATAGTCAGACCAACATTGCTACGACCCGTATTCGCACCGACAC”, the “relative integration efficiency (log2)” value in data set [1] is -2.19 ± 0.42; in data set [2] it was 0.805 ± 0.3.

With “ACATTTGTTGATACAACCATTAAATGGTAATTCCACCCATAAATTGATAATTATCACACCCAATTTAACTATAACGCTCTGATCATAGTCAGACCAACATTGCTACGACCCGTATTCGCACCGACAC”, the “relative integration efficiency (log2)” value in data set [1] was -1.26 ± 0.19; in data set [2], 2.07 ± 0.25.

Consider “ACATTTGTTGATACAACCATTAAATGGTAATTCCACCCATATATTGATAATTATCACACCCAATTTAACTATAACGCTCTGATCATAGTCAGACCAACATTGCTACGACCCGTATTCGCACCGACAC”, for which the entries for the “relative integration efficiency (log2)” value in data set [1] and in data set [2] were -1.52 ± 0.24 and 1.37 ± 0.13, respectively.

Regarding “ACATTTGTTGATACAACCATTAAATGTTAATTCCACCCATAAATTGATAATTATCACACCCAATTTAACTATAACGCTCTGATCATAGTCAGACCAACATTGCTACGACCCGTATTCGCACCGACAC”, the “relative integration efficiency (log2)” value in data set [1] was -1.56 ± 0.23; in data set [2] it was 1.73 ± 0.32.

Turning to “ACATTTGTTGATACAACCATTTAATGATAATAACACCCATAAAATGATAATTATCACACCCAATTTAACTATAACGCTCTGATCATAGTCAGACCAACATTGCTACGACCCGTATTCGCACCGACAC”, the “relative integration efficiency (log2)” value is -1.14 ± 0.26 in data set [1] and 2.01 ± 0.13 in data set [2].

Consider “ACATTTGTTGATACAACCATTTAATGATAATTACACCCATAAATTGATAATTATCACACCCATAAATTGATATTGCCTCTGATCATAGTCAGACCAACATTGCTACGACCCGTATTCGCACCGACAC”, for which the “relative integration efficiency (log2)” value is -0.195 ± 0.052 in data set [1] and -0.232 ± 0.26 in data set [2].

Regarding “ACATTTGTTGATACAACCATTTTTTGATAATTACACCCATAAATTGATAATTATCACACCCATAAATTGATATTGCCTCTGATCATAGTCAGACCAACATTGCTACGACCCGTATTCGCACCGACAC”, the “relative integration efficiency (log2)” value in data set [1] was -0.627 ± 0.016; in data set [2] it was -0.748 ± 0.44.

As for “ACATTTGTTGATACAACCATTTTTTGATAATTACACCCATTTTATGATAATTATCACACCCATTTTATGATATTGCCTCTGATCATAGTCAGACCAACATTGCTACGACCCGTATTCGCACCGACAC”, the “relative integration efficiency (log2)” value was -1.61 ± 0.23 in data set [1] and -1.01 ± 0.052 in data set [2].

As to “ACATTTGTTGATACAACCCGAAAATGATAATTACACCCATAAATTGATAATTATCACACCCATAAATTGATATTGCCTCTGATCATAGTCAGACCAACATTGCTACGACCCGTATTCGCACCGACAC”, the “relative integration efficiency (log2)” value in data set [1] was -3.8 ± 0.095; in data set [2] it was -3.67 ± 0.84.

On to “ACATTTGTTGATACAACCCGCCAATGATAATTACACCCATAAATTGATAATTATCACACCCATAAATTGATATTGCCTCTGATCATAGTCAGACCAACATTGCTACGACCCGTATTCGCACCGACAC”, for which the “relative integration efficiency (log2)” value is -4.28 ± 0.2 in data set [1] and -3.85 ± 0.3 in data set [2].

Regarding “ACATTTGTTGATACAACCCTAAAATGATAATTACACCCATAAATGGATAATTATCACACCCAATTTAACTATAACGCTCTGATCATAGTCAGACCAACATTGCTACGACCCGTATTCGCACCGACAC”, the “relative integration efficiency (log2)” value was -3.06 ± 0.29 in data set [1] and -0.403 ± 0.044 in data set [2].

“ACATTTGTTGATACAACCCTAAAATGATAATTACACCCATAAATGGATAATTATCACCCCCAATTTAACTATAACGCTCTGATCATAGTCAGACCAACATTGCTACGACCCGTATTCGCACCGACAC”: the “relative integration efficiency (log2)” value in data set [1] was -3.24 ± 0.23; in data set [2] it was -0.791 ± 0.11.

On to “ACATTTGTTGATACAACCCTAAAATGATAATTACACCCATAAATGGATCATTATCACACCCAATTTAACTATAACGCTCTGATCATAGTCAGACCAACATTGCTACGACCCGTATTCGCACCGACAC”, for which the “relative integration efficiency (log2)” value in data set [1] is -3.87 ± 0.32; in data set [2], -1.52 ± 0.39.

Turning to “ACATTTGTTGATACAACCCTAAAATGATAATTACACCCATAAATGGATCATTATCACCCCCAATTTAACTATAACGCTCTGATCATAGTCAGACCAACATTGCTACGACCCGTATTCGCACCGACAC”, the results for the “relative integration efficiency (log2)” value in data set [1] and in data set [2] were -4.22 ± 0.58 and -1.44 ± 0.036, respectively.

In the case of “ACATTTGTTGATACAACCCTAAAATGATAATTACACCCATAAATTCATAATTATCACACCCAATTTAACTATAACGCTCTGATCATAGTCAGACCAACATTGCTACGACCCGTATTCGCACCGACAC”, the “relative integration efficiency (log2)” value in data set [1] was -4.59 ± 0.4; in data set [2], -1.75 ± 0.15.

On to “ACATTTGTTGATACAACCCTAAAATGATAATTACACCCATAAATTCATAATTATCACCCCCAATTTAACTATAACGCTCTGATCATAGTCAGACCAACATTGCTACGACCCGTATTCGCACCGACAC”, for which the entries for the “relative integration efficiency (log2)” value in data set [1] and in data set [2] were -4.15 ± 0.4 and -1.67 ± 0.083, respectively.

Take “ACATTTGTTGATACAACCCTAAAATGATAATTACACCCATAAATTCATCATTATCACACCCAATTTAACTATAACGCTCTGATCATAGTCAGACCAACATTGCTACGACCCGTATTCGCACCGACAC”: the “relative integration efficiency (log2)” value is -4.59 ± 0.18 in data set [1] and -1.57 ± 0.23 in data set [2].

As to “ACATTTGTTGATACAACCCTAAAATGATAATTACACCCATAAATTCATCATTATCACCCCCAATTTAACTATAACGCTCTGATCATAGTCAGACCAACATTGCTACGACCCGTATTCGCACCGACAC”, the entries for the “relative integration efficiency (log2)” value in data set [1] and in data set [2] were -4.72 ± 0.23 and -1.49 ± 0.085, respectively.

“ACATTTGTTGATACAACCCTAAAATGATAATTACACCCATAAATTGATAATTATCACCCCCAATTTAACTATAACGCTCTGATCATAGTCAGACCAACATTGCTACGACCCGTATTCGCACCGACAC”: the “relative integration efficiency (log2)” value in data set [1] is -1.61 ± 0.24; in data set [2], 1.5 ± 0.089.

Regarding “ACATTTGTTGATACAACCCTAAAATGATAATTACACCCATAAATTGATCATTATCACACCCAATTTAACTATAACGCTCTGATCATAGTCAGACCAACATTGCTACGACCCGTATTCGCACCGACAC”, the results for the “relative integration efficiency (log2)” value in data set [1] and in data set [2] were -3 ± 0.31 and 0.357 ± 0.061, respectively.

For the sequence “ACATTTGTTGATACAACCCTAAAATGATAATTACACCCATAAATTGATCATTATCACCCCCAATTTAACTATAACGCTCTGATCATAGTCAGACCAACATTGCTACGACCCGTATTCGCACCGACAC”, the figures for the “relative integration efficiency (log2)” value in data set [1] and in data set [2] were -2.81 ± 0.49 and 0.404 ± 0.19, respectively.

As for “ACATTTGTTGATACAACCCTAAAATGATAATTACACCCCTAAATTGATAATTATCACACCCCTAAATTGATATTGCCTCTGATCATAGTCAGACCAACATTGCTACGACCCGTATTCGCACCGACAC”, the “relative integration efficiency (log2)” value in data set [1] was -4.68 ± 0.11; in data set [2], -3.01 ± 0.1.

For the origin of these results see the supplement of paper PMC10201428.
